B1: FAS-associated death domain protein (Homo sapiens), Q13158 (parent)
chain: MDPFLVLLHSVSSSLSSSELTELKFLCLGRVGKRKLERVQSGLDLFSMLLEQNDLEPGHTELLRELLASLRRHDLLRRVDDFEAGAAAGAAPGEEDLCAAFNVICDNVGKDWRRLARQLKVSDTKIDSIEDRYPRNLTERVRESLRIWKNTEKENATVAHLVGALRSCQMNLVADLVQEVQQARDLQNRSGAMSPMSWNSDASTSEAS

Variants of: B1
Settings: with plk1_human PLK1, P53350
Sequence of plk1_human PLK1, P53350 (P53350 whole entry): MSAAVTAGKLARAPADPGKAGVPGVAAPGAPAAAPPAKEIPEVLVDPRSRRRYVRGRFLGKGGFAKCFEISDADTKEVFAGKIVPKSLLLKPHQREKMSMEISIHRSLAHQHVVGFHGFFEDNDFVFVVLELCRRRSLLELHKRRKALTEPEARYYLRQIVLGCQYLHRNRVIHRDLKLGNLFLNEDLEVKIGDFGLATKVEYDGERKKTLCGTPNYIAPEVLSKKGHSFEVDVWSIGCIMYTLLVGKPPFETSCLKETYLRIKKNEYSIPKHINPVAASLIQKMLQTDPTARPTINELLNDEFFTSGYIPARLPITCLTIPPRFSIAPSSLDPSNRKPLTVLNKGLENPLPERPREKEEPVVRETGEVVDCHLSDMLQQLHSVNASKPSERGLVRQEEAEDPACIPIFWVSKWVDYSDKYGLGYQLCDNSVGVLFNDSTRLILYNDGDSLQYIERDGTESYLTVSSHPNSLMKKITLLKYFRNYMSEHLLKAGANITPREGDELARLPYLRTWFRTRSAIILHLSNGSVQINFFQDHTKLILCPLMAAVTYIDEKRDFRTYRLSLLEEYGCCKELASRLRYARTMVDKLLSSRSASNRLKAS

Row | Variant | effect of a mutation on the interaction
1 | S194A | disrupting interaction

— IntAct's records for PubMed 20890306
